Reference: US20020077289A1, “Angiostatin and endostatin binding proteins and methods of use” (priority 2000, published 2002)

How the values were obtained:
G-actin = assay: Actin polymerization light scatter assay; assay type: biochemical; conditions: G-actin/Endostatin nucleation complexes
Excerpt: As a result of the inventors findings, also included herein are_antiangiogenic actin-binding molecules. Though not wishing to be bound by the following theory, it is believed that since actin polymerization is affected by Endostatin it could possibly mean that Endostatin is binding to the actin component of the microfilaments, in addition to or in association with tropomyosin. […] Accordingly, molecules such as Endostatin that have an effect on actin polymerization will have an effect on microfilaments resulting in anti-angiogenic activity through modification of cell motility, and induction of cell apoptosis. Preferred embodiments of the present invention include compositions comprising proteins and chemicals that bind tropomyosin isoforms, such as hTM3. In certain embodiments, such compositions may be characterized as antiangiogenic actin-binding molecules.

HUVEC microfilaments = assay: Fluorescent staining of formalin fixed endothelial cells with Alexa 488-labeled rhEndostatin; assay type: cell-based, human; conditions: 40 μg/ml Alexa 488-labeled rhEndostatin with anti-tropomyosin TM311; HUVECs
Procedure: (A), HUVECs, (B), HAECs and (C), HMVECs were incubated in the presence of 40 micrograms per milliliter (μg/ml) Alexa 488-labeled rhEndostatin and photographed at 100× magnification under Alexa 488 (green) excitation wavelength. (D) and (E), HUVECs were incubated simultaneously in anti-tropomyosin TM311 ascites fluid and 40 micrograms per milliliter (μg/ml) Alexa 488-labeled rhEndostatin followed by incubation in Alexa 594 conjugated goat anti-mouse IgG (H+L). The same field was photographed under Alexa 488 (green) and Alexa 594 (red) excitation wavelengths at 100× magnification.
HUVECs were incubated in the presence of 40 micrograms per milliliter (μg/ml) Alexa 488-labeled rhEndostatin alone (A), or in the presence of a 50-fold molar excess of control peptide (B), or E37 peptide (C). Cells were photographed using the same exposure times at 100x magnification under Alexa 488 (green) excitation wavelength.
To detect the binding of Alexa-labeled rhEndostatin 1×10^4 HUVEC, HMVEC and HAECs were plated on 1.5% gelatin coated Nalge Nunc Lab Tek II chamber slides (Naperville, Ill.) and fixed in 10% neutral buffered formalin followed by a methanol wash. The chamber slides were incubated in PBS/1% calf serum containing 40 μg/ml (2 μM) of Alexa 488-labeled rhEndostatin (Narum et al., manuscript in preparation) for 1 hr at room temperature. The slides were washed in PBS, coverslips mounted using fluorescent mounting media (Kirkegaard and Perry Laboratories, Gaithersburg, Md.) and cells photographed under Alexa 488 excitation wavelength. Co-localization studies were performed as above except cells were incubated in PBS/1% calf serum containing 1:200 mouse anti-tropomyosin TM311 (Sigma, St. Louis, Miss.) and 40 μg/ml of Alexa 488-labeled rhEndostatin followed by incubation with goat anti-mouse IgG (H+L) conjugated to Alexa 594 (Molecular Probes, Eugene, Oregon). The same fields were photographed under Alexa 488 and Alexa 594 wavelengths. […]

[1] = target: T1, rhTM3 (human tropomyosin isoform 3) (Homo sapiens, UniProt P09493); assay: Surface plasmon resonance (BIAcore) binding to immobilized rhTM3; conditions: steady state model; soluble rhEndostatin over immobilized rhTM3 (3200 RU); 25° C; read-out: dissociation constant (KD) for the rhEndostatin/rhTM3 interaction
T1 construct: made in house; host or cells: E. coli BL21 (DE3), pET-21a(+)
T1 sequence (P09493 1-284 isoform P09493-3): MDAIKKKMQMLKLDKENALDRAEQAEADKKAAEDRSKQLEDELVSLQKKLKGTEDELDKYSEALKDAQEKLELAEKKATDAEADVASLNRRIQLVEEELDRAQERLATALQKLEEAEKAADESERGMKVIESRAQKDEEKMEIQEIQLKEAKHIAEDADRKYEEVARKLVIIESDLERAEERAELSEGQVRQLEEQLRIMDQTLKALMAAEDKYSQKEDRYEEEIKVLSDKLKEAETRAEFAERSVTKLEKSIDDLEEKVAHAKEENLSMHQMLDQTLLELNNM
Procedure: (A), 0, 10, 20, 40, 80 and 160 micromolar (μM) of rhEndostatin were injected at 5 microliters per minute (μl/minute) for 960 seconds through a biosensor flow cell that had been activated and blocked as a control for bulk refractive index and subsequently through a flow cell to which 3200 response units (RU) of rhTM3 had been immobilized. The binding kinetics were recorded and the differences between the two curves plotted for each rhEndostatin concentration. (B), 0, 11.5, 23 and 46 micromolar (μM) of rhAngiostatin were injected at 5 microliters per minute (μl/minute) for 900 seconds over a flow cell containing 3200 RU of rhTM3 as above. Samples were run in duplicate, the data corrected for bulk shift and the average of the 2 curves plotted. (C), Injection of 5 micromolar (μM) of rhEndostatin at 5 microliters per minute (μl/minute) for 240 seconds in the presence of 0, 6, 15, 30 and 45 micromolar (μM) of soluble rhTM3 over a flow cell containing 2000 RU of rhTM3. Samples were run in duplicate, the reference cell values subtracted and the average of each of the 2 curves plotted. The spikes in RU seen at the beginning and end of each injection are due to lag in flow caused by the rhTM3 and reference cells being non-adjacent.
Interactions between purified soluble rhEndostatin and rhTM3 were evaluated by surface plasmon resonance using the BIAcore 3000 (BiaCore, Piscataway, N.J.). The purified rhTM3 was immobilized on the flow cell of a CM-5 BIAcore biosensor chip. The running buffer was 0.01 M HEPES, pH 7.4, 0.15M NaCl and 0.005% polysorbate 20 (v/v). The competition experiments involving soluble rhTM3 were performed using PBS pH 7.4 as running buffer. All measurements were performed at 25° C. To correct for differences in bulk refraction all protein preparations were passed over an activated and blocked flow cell to which no protein had been coupled. Effects due to bulk shift were subtracted from experimental data.
Surface plasmon resonance performed using the BIAcore 3000 (BiaCore, Piscataway, N.J.) was used to assess the kinetics of rhEndostatin/rhTM3 binding. […]

B16-BL6 melanoma cells = assay: B16-BL6 experimental metastasis assay; assay type: in vivo, C57BL/6J mice; conditions: dose of 1.3 nmol rhEndostatin
fibroblasts = assay: Proliferation of PDGF-BB or 20% fetal calf serum stimulated fibroblasts (thymidine incorporation, MTT); assay type: cell-based; conditions: stimulated with PDGF-BB or 20% fetal calf serum; compared with pericytes
Excerpt: Endostatin protein results in an inhibition of proliferation of PDGF-BB or 20% fetal calf serum stimulated primary cultures of pericytes and to a lesser extent fibroblasts. […] The results have been confirmed using a MTT proliferation kit.

mammary tumor = conditions: i.v. technetium (99mTc) labeled rhEndostatin, 100 μCi/rat; personal communication; cited from earlier work

Kd [1]: ~100 µM
B1: rhEndostatin: recombinant human Endostatin, antiangiogenic fragment of a C-terminal non-collagenous region of a collagen protein, produced in P. pastoris (protein)
chain: HSHRDFQPVLHLVALNSPLSGGMRGIRGADFQCFQQARAVGLAGTFRAFLSSRLQDLYSIVRRADRAAVPIVNLKDELLFPSWEALFSGSEGPLKPGARIFSFDGKDVLRHPTWPQKSVWHGSDPNGRRLTESYCETWRTEAPSATGQASSLLGGRLLGQSAASCHHAYIVLCIENSFMTASK
effect on actin polymerization (G-actin): shorten the lag phase and facilitate actin polymerization
localization of fluorescently labeled rhEndostatin in fixed cells (HUVEC microfilaments): co-localized to HUVEC microfilaments
inhibition of lung metastases inferred from dose titration of rhEndostatin (Sim et al) (B16-BL6 melanoma cells): 77%
thymidine incorporation into fibroblasts (fibroblasts): to a lesser degree
time after injection at which the tumor could be visualized (mammary tumor): 0.5 to 4 h
